This test concerns the target T1, Recombinant human LAG3-His (Sino Biological; catalogue No. 16498-H08H) (human, UniProt P18627 23-450).
T1 construct: also called human LAG3 His-tag protein; CD223
T1 sequence: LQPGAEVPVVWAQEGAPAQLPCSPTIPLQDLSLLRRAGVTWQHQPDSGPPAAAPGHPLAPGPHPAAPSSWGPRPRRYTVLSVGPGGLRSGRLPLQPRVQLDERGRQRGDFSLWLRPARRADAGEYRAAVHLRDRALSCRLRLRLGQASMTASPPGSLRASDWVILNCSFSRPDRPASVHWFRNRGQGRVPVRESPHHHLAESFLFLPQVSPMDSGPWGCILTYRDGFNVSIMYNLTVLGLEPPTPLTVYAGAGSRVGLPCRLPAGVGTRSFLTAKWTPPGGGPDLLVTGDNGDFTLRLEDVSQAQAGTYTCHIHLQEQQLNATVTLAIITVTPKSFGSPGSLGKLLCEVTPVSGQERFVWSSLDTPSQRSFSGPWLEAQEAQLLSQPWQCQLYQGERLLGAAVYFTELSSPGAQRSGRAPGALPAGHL
Nature of the test: ELISA: antibody coated at 5 µg/mL, soluble human LAG3-His titrated (x-axis: Human LAG3, µg/ml), OD at 450nm.

Broadly, the EC50 (read off the curve) is the concentration needed to bring the measured effect to its halfway point.

B1: 2D12-2E3-N102D (antibody, V domains shown)
VH: EVQLVESGGGLVQPGRSLRLSCVASGDGMSDYDMHWVRQAPGKGLEWVSGIGWNSGTIDYADSVKGRFIISRDNAKNSLYLQMNSLRPEDTALYYCAKEILDYSWMSVYGMDVWGQGTTVTVSS
VL: DIQMTQSPSSLSASVGDRVTITCRASQNIGTYLNWYQQSPGKAPKLLIYGASSLHSGVPSRVSGSGSGTDFTLTINTLQPEDFATYFCQQSYNTPPTFGQGTKVEIK
notes: also called anti-LAG3 antibody 2D12-2E3-N102D
On to B1, for which the “EC50 (read off the curve)” value is about 0.04 µg/mL.

Values taken from patent US20230147852A1 (SORRENTO THERAPEUTICS, published 2023).
